{"source": "the supplement of paper PMC10567573", "parents": {"B1": {"name": "KRT18 (parent)", "chain": "RVRSLETENRRLESKIREHLEKKG"}}, "data": [{"variants_of": "B1", "assay": "protein stability index of a GFP-peptide fusion (GPS, HEK-293T) (PSI 1-6); higher = more stable", "details": "c terminus: a fixed tail appended", "values": [{"variant": "RVRSLETENRRLESKIREELEKKG", "note": "[H19E]", "protein stability index": 5.26}, {"variant": "RVRSLETENRRLESKIREGLEKKG", "note": "[H19G]", "protein stability index": 5.48}, {"variant": "RVRSLETENRRLESKIRESLEKKG", "note": "[H19S]", "protein stability index": 4.79}, {"variant": "RVRSLETENRRLESKIREPLEKKG", "note": "[H19P]", "protein stability index": 5.53}, {"variant": "RVRSLETENRRLESDIREHLEKKG", "note": "[K15D]", "protein stability index": 3.69}, {"variant": "RVRSLETENRRLESPIREHLEKKG", "note": "[K15P]", "protein stability index": 5.23}, {"variant": "RVRSLETENRRLESRIREHLEKKG", "note": "[K15R]", "protein stability index": 4.67}, {"variant": "RVRSLETENRRLESLIREHLEKKG", "note": "[K15L]", "protein stability index": 3.88}, {"variant": "RVRSLETENRRLESFIREHLEKKG", "note": "[K15F]", "protein stability index": 3.04}, {"variant": "RVRSLETENRRLESSIREHLEKKG", "note": "[K15S]", "protein stability index": 5.16}, {"variant": "RVRSLETENRRLESNIREHLEKKG", "note": "[K15N]", "protein stability index": 5.24}, {"variant": "RVRSLETENRRLESTIREHLEKKG", "note": "[K15T]", "protein stability index": 4.76}, {"variant": "RVRSLETENRRLESHIREHLEKKG", "note": "[K15H]", "protein stability index": 3.6}, {"variant": "RVRSLETLNRRLESKIREHLEKKG", "note": "[E8L]", "protein stability index": 4.33}, {"variant": "RVRSLETQNRRLESKIREHLEKKG", "note": "[E8Q]", "protein stability index": 3.38}, {"variant": "RVRSLETDNRRLESKIREHLEKKG", "note": "[E8D]", "protein stability index": 3.96}, {"variant": "RVRSLETKNRRLESKIREHLEKKG", "note": "[E8K]", "protein stability index": 3.89}, {"variant": "RVRSLETTNRRLESKIREHLEKKG", "note": "[E8T]", "protein stability index": 4.2}, {"variant": "RVRSLETYNRRLESKIREHLEKKG", "note": "[E8Y]", "protein stability index": 3.82}, {"variant": "RVRSLETHNRRLESKIREHLEKKG", "note": "[E8H]", "protein stability index": 4.36}, {"variant": "RVRSLETENRRLESKIREHLEKIG", "note": "[K23I]", "protein stability index": 3.2}, {"variant": "RVRSLETENRRLESKIREHLEKSG", "note": "[K23S]", "protein stability index": 4.52}, {"variant": "RVRSLETENRRLNSKIREHLEKKG", "note": "[E13N]", "protein stability index": 4.89}, {"variant": "RVRSLETENRRLCSKIREHLEKKG", "note": "[E13C]", "protein stability index": 4.3}, {"variant": "RVRSLETENRRLASKIREHLEKKG", "note": "[E13A]", "protein stability index": 4.22}, {"variant": "RVRSLETENRRLGSKIREHLEKKG", "note": "[E13G]", "protein stability index": 4.75}, {"variant": "RVRSLETENRRLWSKIREHLEKKG", "note": "[E13W]", "protein stability index": 3.85}, {"variant": "RVRSLETENRRLTSKIREHLEKKG", "note": "[E13T]", "protein stability index": 4.1}, {"variant": "RVRSLETENRRLISKIREHLEKKG", "note": "[E13I]", "protein stability index": 2.37}, {"variant": "RVRSLETENRRLKSKIREHLEKKG", "note": "[E13K]", "protein stability index": 4.84}, {"variant": "RVRSLETENRRLHSKIREHLEKKG", "note": "[E13H]", "protein stability index": 4.21}, {"variant": "RVRSLETENRRLESKIREHLEKKH", "note": "[G24H]", "protein stability index": 4.48}, {"variant": "RVRSLETENRRLESKIREHLEKKI", "note": "[G24I]", "protein stability index": 3.83}, {"variant": "RVRSLETENRRLESKIREHLEKKY", "note": "[G24Y]", "protein stability index": 3.92}, {"variant": "RVRSLETENRRLESKIREHLEKKM", "note": "[G24M]", "protein stability index": 3.73}, {"variant": "RVRSLETENRRLESKIREHLEKKC", "note": "[G24C]", "protein stability index": 3.69}, {"variant": "VVRSLETENRRLESKIREHLEKKG", "note": "[R1V]", "protein stability index": 4.19}, {"variant": "YVRSLETENRRLESKIREHLEKKG", "note": "[R1Y]", "protein stability index": 1.78}, {"variant": "GVRSLETENRRLESKIREHLEKKG", "note": "[R1G]", "protein stability index": 4.36}, {"variant": "PVRSLETENRRLESKIREHLEKKG", "note": "[R1P]", "protein stability index": 4.45}, {"variant": "KVRSLETENRRLESKIREHLEKKG", "note": "[R1K]", "protein stability index": 3.94}, {"variant": "QVRSLETENRRLESKIREHLEKKG", "note": "[R1Q]", "protein stability index": 4.7}, {"variant": "HVRSLETENRRLESKIREHLEKKG", "note": "[R1H]", "protein stability index": 4.14}, {"variant": "RVRSMETENRRLESKIREHLEKKG", "note": "[L5M]", "protein stability index": 4.77}, {"variant": "RVRSWETENRRLESKIREHLEKKG", "note": "[L5W]", "protein stability index": 4.29}, {"variant": "RVRSVETENRRLESKIREHLEKKG", "note": "[L5V]", "protein stability index": 5.01}, {"variant": "RVRSCETENRRLESKIREHLEKKG", "note": "[L5C]", "protein stability index": 3.41}, {"variant": "RVRSYETENRRLESKIREHLEKKG", "note": "[L5Y]", "protein stability index": 4.32}, {"variant": "RVRSKETENRRLESKIREHLEKKG", "note": "[L5K]", "protein stability index": 3.99}, {"variant": "RVRSQETENRRLESKIREHLEKKG", "note": "[L5Q]", "protein stability index": 4.67}, {"variant": "RVRSNETENRRLESKIREHLEKKG", "note": "[L5N]", "protein stability index": 5.06}, {"variant": "RVRSLELENRRLESKIREHLEKKG", "note": "[T7L]", "protein stability index": 4.54}, {"variant": "RVRSLEFENRRLESKIREHLEKKG", "note": "[T7F]", "protein stability index": 4.79}, {"variant": "RVRSLENENRRLESKIREHLEKKG", "note": "[T7N]", "protein stability index": 4.34}, {"variant": "RVRSLEDENRRLESKIREHLEKKG", "note": "[T7D]", "protein stability index": 4.17}, {"variant": "RVRSLETENRRLESKIREHHEKKG", "note": "[L20H]", "protein stability index": 5.35}, {"variant": "RVRSLETENRRLESKIREHTEKKG", "note": "[L20T]", "protein stability index": 4.99}, {"variant": "RVRSLETENRRLESKIREHIEKKG", "note": "[L20I]", "protein stability index": 4.79}, {"variant": "RVRSLETENRRLESKIREHWEKKG", "note": "[L20W]", "protein stability index": 3.95}, {"variant": "RVRSLETENRRLESKIREHAEKKG", "note": "[L20A]", "protein stability index": 5.1}, {"variant": "RVRSLETENRRLESKIREHEEKKG", "note": "[L20E]", "protein stability index": 5.7}, {"variant": "RVRSLETENRRLESKIREHPEKKG", "note": "[L20P]", "protein stability index": 5.58}, {"variant": "RVRSLETENRRLESKIREHVEKKG", "note": "[L20V]", "protein stability index": 4.94}, {"variant": "RVRSLETENRRLESKIREHREKKG", "note": "[L20R]", "protein stability index": 5.23}, {"variant": "RVRSLETENRREESKIREHLEKKG", "note": "[L12E]", "protein stability index": 5.88}, {"variant": "RVRSLETENRRMESKIREHLEKKG", "note": "[L12M]", "protein stability index": 3.02}, {"variant": "RVRSLETENRRPESKIREHLEKKG", "note": "[L12P]", "protein stability index": 5.41}, {"variant": "RVRSLETENRRVESKIREHLEKKG", "note": "[L12V]", "protein stability index": 4.69}, {"variant": "RVRSLETENRRHESKIREHLEKKG", "note": "[L12H]", "protein stability index": 5.05}, {"variant": "RVRSLETENRRNESKIREHLEKKG", "note": "[L12N]", "protein stability index": 5.35}, {"variant": "RVRSLETENRRDESKIREHLEKKG", "note": "[L12D]", "protein stability index": 4.21}, {"variant": "RVRSLETENRRTESKIREHLEKKG", "note": "[L12T]", "protein stability index": 5.22}, {"variant": "RVRSLETEARRLESKIREHLEKKG", "note": "[N9A]", "protein stability index": 2.73}, {"variant": "RVRSLETEGRRLESKIREHLEKKG", "note": "[N9G]", "protein stability index": 3.48}, {"variant": "RVRSLETEVRRLESKIREHLEKKG", "note": "[N9V]", "protein stability index": 1.9}, {"variant": "RVRSLETEMRRLESKIREHLEKKG", "note": "[N9M]", "protein stability index": 2.85}, {"variant": "RVRSLETEERRLESKIREHLEKKG", "note": "[N9E]", "protein stability index": 4.97}, {"variant": "RVRSLETEIRRLESKIREHLEKKG", "note": "[N9I]", "protein stability index": 2}, {"variant": "RVRSLETEYRRLESKIREHLEKKG", "note": "[N9Y]", "protein stability index": 3.85}, {"variant": "RVRSLETEWRRLESKIREHLEKKG", "note": "[N9W]", "protein stability index": 1.85}, {"variant": "RVRKLETENRRLESKIREHLEKKG", "note": "[S4K]", "protein stability index": 4.26}, {"variant": "RVRELETENRRLESKIREHLEKKG", "note": "[S4E]", "protein stability index": 4.48}, {"variant": "RVRCLETENRRLESKIREHLEKKG", "note": "[S4C]", "protein stability index": 3.5}, {"variant": "RVRRLETENRRLESKIREHLEKKG", "note": "[S4R]", "protein stability index": 4.29}, {"variant": "RVRFLETENRRLESKIREHLEKKG", "note": "[S4F]", "protein stability index": 4.29}, {"variant": "RVRHLETENRRLESKIREHLEKKG", "note": "[S4H]", "protein stability index": 3.84}, {"variant": "RVRGLETENRRLESKIREHLEKKG", "note": "[S4G]", "protein stability index": 4.35}, {"variant": "RVRSLKTENRRLESKIREHLEKKG", "note": "[E6K]", "protein stability index": 4.02}, {"variant": "RVRSLFTENRRLESKIREHLEKKG", "note": "[E6F]", "protein stability index": 3.32}, {"variant": "RVRSLCTENRRLESKIREHLEKKG", "note": "[E6C]", "protein stability index": 4.43}, {"variant": "RVRSLYTENRRLESKIREHLEKKG", "note": "[E6Y]", "protein stability index": 2.53}, {"variant": "RVRSLTTENRRLESKIREHLEKKG", "note": "[E6T]", "protein stability index": 3.01}, {"variant": "RVRSLITENRRLESKIREHLEKKG", "note": "[E6I]", "protein stability index": 3.84}, {"variant": "RVRSLLTENRRLESKIREHLEKKG", "note": "[E6L]", "protein stability index": 2.31}]}]}
